Legend:
[1] = system: HeLa Kyoto; experiment: solubility in G1/S (NP-40 vs SDS abundance) (log2 ratio); higher = more soluble; conditions: cell cycle stage: G1/S
[2] = system: HeLa Kyoto; experiment: thermal stability score vs G1/S (z-score of summed log2 fold changes over temperatures); higher = more thermally stable than in G1/S
[3] = system: HeLa Kyoto; experiment: solubility change mitosis vs G1/S (difference of NP-40 vs SDS log2 ratios) (log2 ratio difference); higher = more soluble in mitosis
[4] = system: HeLa Kyoto; experiment: melting temperature (median over replicates), in situ; higher = more thermally stable
[5] = cell cycle stage: early G1 (4.5 h after nocodazole release)
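Throughout, for melting temperature (median over replicates), in situ: HeLa Kyoto cells synchronized by double thymidine or nocodazole block, proteins quantified by TMT10plex mass spectrometry, three independent biological replicates.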
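Throughout, for solubility change mitosis vs G1/S (difference of NP-40 vs SDS log2 ratios): synchronized HeLa Kyoto cells (double thymidine block for G1/S, nocodazole release for mitosis), protein amounts in NP-40 versus SDS lysates quantified by mass spectrometry, three biological replicates.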
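Throughout, for solubility in G1/S (NP-40 vs SDS abundance): HeLa Kyoto cells arrested at G1/S by double thymidine block, proteins quantified by TMT10plex mass spectrometry in mild NP-40 versus SDS extracts, three biological replicates.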
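Throughout, for thermal stability score vs G1/S (z-score of summed log2 fold changes over temperatures): synchronized HeLa Kyoto cells, proteins quantified by TMT10plex mass spectrometry, three biological replicates, mitosis taken 0.5 h after nocodazole release, G1/S directly after double thymidine block.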

Sequence: MCGSALAFFTAAFVCLQNDRRGPASFLWAAWVFSLVLGLGQGEDNRCASSNAASCARCLALGPECGWCVQEDFISGGSRSERCDIVSNLISKGCSVDSIEYPSVHVIIPTENEINTQVTPGEVSIQLRPGAEANFMLKVHPLKKYPVDLYYLVDVSASMHNNIEKLNSVGNDLSRKMAFFSRDFRLGFGSYVDKTVSPYISIHPERIHNQCSDYNLDCMPPHGYIHVLSLTENITEFEKAVHRQKISGNIDTPEGGFDAMLQAAVCESHIGWRKEAKRLLLVMTDQTSHLALDSKLAGIVVPNDGNCHLKNNVYVKSTTMEHPSLGQLSEKLIDNNINVIFAVQGKQFHWYKDLLPLLPGTIAGEIESKAANLNNLVVEAYQKLISEVKVQVENQVQGIYFNITAICPDGSRKPGMEGCRNVTSNDEVLFNVTVTMKKCDVTGGKNYAIIKPIGFNETAKIHIHRNCSCQCEDNRGPKGKCVDETFLDSKCFQCDENKCHFDEDQFSSESCKSHKDQPVCSGRGVCVCGKCSCHKIKLGKVYGKYCEKDDFSCPYHHGNLCAGHGECEAGRCQCFSGWEGDRCQCPSAAAQHCVNSKGQVCSGRGTCVCGRCECTDPRSIGRFCEHCPTCYTACKENWNCMQCLHPHNLSQAILDQCKTSCALMEQQHYVDQTSECFSSPSYLRIFFIIFIVTFLIGLLKVLIIRQVILQWNSNKIKSSSDYRVSASKKDKLILQSVCTRAVTYRREKPEEIKMDISKLNAHETFRCNF [ITGB8]
- solubility in G1/S (log2) [1]: -0.0596
- thermal stability score [2, 5]: -0.935
- thermal stability score ([2]; cell cycle stage: mitosis): -1.88
- solubility change mitosis (log2) [3]: -0.0048
- melting temperature ([4]; cell cycle stage: G1/S): 53.9 °C
- melting temperature ([4]; cell cycle stage: mitosis): 53.8 °C

Sequence: MAELRVLVAVKRVIDYAVKIRVKPDRTGVVTDGVKHSMNPFCEIAVEEAVRLKEKKLVKEVIAVSCGPAQCQETIRTALAMGADRGIHVEVPPAEAERLGPLQVARVLAKLAEKEKVDLVLLGKQAIDDDCNQTGQMTAGFLDWPQGTFASQVTLEGDKLKVEREIDGGLETLRLKLPAVVTADLRLNEPRYATLPNIMKAKKKKIEVIKPGDLGVDLTSKLSVISVEDPPQRTAGVKVETTEDLVAKLKEIGRI [ETFB]
- solubility in G1/S (log2) [1]: 0.362
- thermal stability score [2, 5]: -1.74
- thermal stability score ([2]; cell cycle stage: mitosis): -0.806
- solubility change mitosis (log2) [3]: 0.0272
- melting temperature ([4]; cell cycle stage: G1/S): 54 °C
- melting temperature ([4]; cell cycle stage: mitosis): 54.2 °C

Sequence: MESEQLFHRGYYRNSYNSITSASSDEELLDGAGVIMDFQTSEDDNLLDGDTAVGTHYTMTNGGSINSSTHLLDLLDEPIPGVGTYDDFHTIDWVREKCKDRERHRRINSKKKESAWEMTKSLYDAWSGWLVVTLTGLASGALAGLIDIAADWMTDLKEGICLSALWYNHEQCCWGSNETTFEERDKCPQWKTWAELIIGQAEGPGSYIMNYIMYIFWALSFAFLAVSLVKVFAPYACGSGIPEIKTILSGFIIRGYLGKWTLMIKTITLVLAVASGLSLGKEGPLVHVACCCGNIFSYLFPKYSTNEAKKREVLSAASAAGVSVAFGAPIGGVLFSLEEVSYYFPLKTLWRSFFAALVAAFVLRSINPFGNSRLVLFYVEYHTPWYLFELFPFILLGVFGGLWGAFFIRANIAWCRRRKSTKFGKYPVLEVIIVAAITAVIAFPNPYTRLNTSELIKELFTDCGPLESSSLCDYRNDMNASKIVDDIPDRPAGIGVYSAIWQLCLALIFKIIMTVFTFGIKVPSGLFIPSMAIGAIAGRIVGIAVEQLAYYHHDWFIFKEWCEVGADCITPGLYAMVGAAACLGGVTRMTVSLVVIVFELTGGLEYIVPLMAAVMTSKWVGDAFGREGIYEAHIRLNGYPFLDAKEEFTHTTLAADVMRPRRNDPPLAVLTQDNMTVDDIENMINETSYNGFPVIMSKESQRLVGFALRRDLTIAIESARKKQEGIVGSSRVCFAQHTPSLPAESPRPLKLRSILDMSPFTVTDHTPMEIVVDIFRKLGLRQCLVTHNGRLLGIITKKDILRHMAQTANQDPASIMFN [CLCN3]
- solubility in G1/S (log2) [1]: -0.354
- thermal stability score [2, 5]: -0.456
- thermal stability score ([2]; cell cycle stage: mitosis): -0.317
- solubility change mitosis (log2) [3]: -0.0871
- melting temperature ([4]; cell cycle stage: G1/S): 54.9 °C
- melting temperature ([4]; cell cycle stage: mitosis): 54.9 °C

Sequence: MASGGSGGVSVPALWSEVNRYGQNGDFTRALKTVNKILQINKDDVTALHCKVVCLIQNGSFKEALNVINTHTKVLANNSLSFEKAYCEYRLNRIENALKTIESANQQTDKLKELYGQVLYRLERYDECLAVYRDLVRNSQDDYDEERKTNLSAVVAAQSNWEKVVPENLGLQEGTHELCYNTACALIGQGQLNQAMKILQKAEDLCRRSLSEDTDGTEEDPQAELAIIHGQMAYILQLQGRTEEALQLYNQIIKLKPTDVGLLAVIANNIITINKDQNVFDSKKKVKLTNAEGVEFKLSKKQLQAIEFNKALLAMYTNQAEQCRKISASLQSQSPEHLLPVLIQAAQLCREKQHTKAIELLQEFSDQHPENAAEIKLTMAQLKISQGNISKACLILRSIEELKHKPGMVSALVTMYSHEEDIDSAIEVFTQAIQWYQNHQPKSPAHLSLIREAANFKLKYGRKKEAISDLQQLWKQNPKDIHTLAQLISAYSLVDPEKAKALSKHLPSSDSMSLKVDVEALENSAGATYIRKKGGKVTGDSQPKEQGQGDLKKKKKKKKGKLPKNYDPKVTPDPERWLPMRERSYYRGRKKGKKKDQIGKGTQGATAGASSELDASKTVSSPPTSPRPGSAATVSASTSNIIPPRHQKPAGAPATKKKQQQKKKKGGKGGW [SRP72]
- solubility in G1/S (log2) [1]: -0.278
- thermal stability score [2, 5]: -0.0233
- thermal stability score ([2]; cell cycle stage: mitosis): 0.35
- solubility change mitosis (log2) [3]: 0.328
- melting temperature ([4]; cell cycle stage: G1/S): 50.5 °C
- melting temperature ([4]; cell cycle stage: mitosis): 49.7 °C

Sequence: MAAAAKPNNLSLVVHGPGDLRLENYPIPEPGPNEVLLRMHSVGICGSDVHYWEYGRIGNFIVKKPMVLGHEASGTVEKVGSSVKHLKPGDRVAIEPGAPRENDEFCKMGRYNLSPSIFFCATPPDDGNLCRFYKHNAAFCYKLPDNVTFEEGALIEPLSVGIHACRRGGVTLGHKVLVCGAGPIGMVTLLVAKAMGAAQVVVTDLSATRLSKAKEIGADLVLQISKESPQEIARKVEGQLGCKPEVTIECTGAEASIQAGIYATRSGGNLVLVGLGSEMTTVPLLHAAIREVDIKGVFRYCNTWPVAISMLASKSVNVKPLVTHRFPLEKALEAFETFKKGLGLKIMLKCDPSDQNP [SORD]
- solubility in G1/S (log2) [1]: 0.184
- thermal stability score [2, 5]: -2.25
- thermal stability score ([2]; cell cycle stage: mitosis): -1.12
- solubility change mitosis (log2) [3]: -0.109
- melting temperature ([4]; cell cycle stage: G1/S): 58.1 °C
- melting temperature ([4]; cell cycle stage: mitosis): 57 °C

Sequence: MEGAGYRVVFEKGGVYLHTSAKKYQDRDSLIAGVIRVVEKDNDVLLHWAPVEEAGDSTQILFSKKDSSGGDSCASEEEPTFDPGYEPDWAVISTVRPQLCHSEPTRGAEPSCPQGSWAFSVSLGELKSIRRSKPGLSWAYLVLVTQAGGSLPALHFHRGGTRALLRVLSRYLLLASSPQDSRLYLVFPHDSSALSNSFHHLQLFDQDSSNVVSRFLQDPYSTTFSSFSRVTNFFRGALQPQPEGAASDLPPPPDDEPEPGFEVISCVELGPRPTVERGPPVTEEEWARHVGPEGRLQQVPELKNRIFSGGLSPSLRREAWKFLLGYLSWEGTAEEHKAHIRKKTDEYFRMKLQWKSVSPEQERRNSLLHGYRSLIERDVSRTDRTNKFYEGPENPGLGLLNDILLTYCMYHFDLGYVQGMSDLLSPILYVIQNEVDAFWCFCGFMELVQGNFEESQETMKRQLGRLLLLLRVLDPLLCDFLDSQDSGSLCFCFRWLLIWFKREFPFPDVLRLWEVLWTGLPGPNLHLLVACAILDMERDTLMLSGFGSNEILKHINELTMKLSVEDVLTRAEALHRQLTACPELPHNVQEILGLAPPAEPHSPSPTASPLPLSPTRAPPTPPPSTDTAPQPDSSLEILPEEEDEGADS [TBC1D17]
- solubility in G1/S (log2) [1]: -0.0906
- thermal stability score [2, 5]: -0.527
- thermal stability score ([2]; cell cycle stage: mitosis): -0.608
- solubility change mitosis (log2) [3]: -0.0875
- melting temperature ([4]; cell cycle stage: G1/S): 51.4 °C
- melting temperature ([4]; cell cycle stage: mitosis): 50.7 °C
